Reference: PMC9818267, “Brain Natriuretic Peptide Protects Cardiomyocytes from Apoptosis and Stimulates Their Cell Cycle Re-Entry in Mouse Infarcted Hearts” (Cells, 2022)

Experiments:
[1] = biological target: NPR-A or NPR-B (mouse (endogenous in cardiomyocytes))
[2] = biological target: NPR-A or NPR-B (mouse (endogenous in cardiomyocytes)); remark: listed apart in the source

pPLB/PLB ratio (Western blot) in CMs isolated from the RZ of infarcted hearts after BNP injections, against saline (decreased) [1]: -32% | pPLB/PLB ratio (Western blot) in CMs isolated from the border zone (BZ) of infarcted hearts after BNP injections, against saline [1]: 2.7 fold | pPLB/PLB ratio (Western blot) in CMs isolated from unmanipulated adult hearts after BNP injections, against saline [1]: 1.5 fold | pPLB/PLB ratio (Western blot) in CMs isolated from unmanipulated neonatal hearts after BNP injections, against saline [1]: 3.5 fold | pPLB/PLB ratio (Western blot) in adult CMs isolated from C57BL/6 hearts and stimulated in vitro with BNP for 2–3 h, against untreated cells [2]: 2.1 fold
Substance: Brain Natriuretic Peptide, synthetic mouse BNP (1–45) peptide
